Experiment [1] deals with T1, full-length Ply2638A endolysin (PlyFL) (Staphylococcus pseudintermedius phage …, UniProt Q4ZD58 1-486).
T1 construct: Endolysin Ply2638A of Staphylococcus pseudintermedius phage φ2638A, full length (M23 endopeptidase, central amidase, C-terminal SH3b CBD; SH3b domain is residues 393-486); internal start codon TTG at Leu180 silently changed to CTC so that only the FL isoform is made; expected mass 55.5 kDa; The TTG>CTC change at Leu180 is silent (Leu to Leu); Purified as a protein without a His-tag; In the SEC of …
T1 sequence (looked up): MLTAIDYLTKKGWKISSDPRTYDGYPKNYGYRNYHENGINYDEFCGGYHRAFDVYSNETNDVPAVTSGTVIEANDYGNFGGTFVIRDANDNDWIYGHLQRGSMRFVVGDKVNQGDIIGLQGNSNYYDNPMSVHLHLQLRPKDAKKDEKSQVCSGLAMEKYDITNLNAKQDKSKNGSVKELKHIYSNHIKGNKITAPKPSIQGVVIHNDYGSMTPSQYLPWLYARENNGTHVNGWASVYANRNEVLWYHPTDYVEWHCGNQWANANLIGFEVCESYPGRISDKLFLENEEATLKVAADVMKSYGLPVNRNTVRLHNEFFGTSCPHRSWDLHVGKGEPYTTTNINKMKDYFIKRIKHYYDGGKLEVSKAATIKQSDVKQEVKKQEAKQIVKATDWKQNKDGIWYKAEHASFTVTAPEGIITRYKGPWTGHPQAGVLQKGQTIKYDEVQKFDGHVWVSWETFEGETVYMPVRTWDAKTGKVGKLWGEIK
The experiment is described as follows: SPR; Biacore X, PlyFL immobilised by amine coupling on a CMD500L chip; analytes at 750 nM, 1 μM, 2.5 μM and 5 μM, 10 μL/min, running buffer PBS pH 7.4; steady state not attained. Conditions: both partners purified.

Experiment [2] concerns the target T1, full-length Ply2638A endolysin (PlyFL). Description: SEC-MALS; 1:3 (w/w) mixture of PlyFL and PlySV at 1 mg/mL, Superdex 200 10/30, 10 mM HEPES, 150 mM NaCl, 3.4 mM EDTA, 0.005 % Tween20, pH 7.4. Conditions: both partners purified.

The source of these data is doi:10.1101/2024.01.16.575832, “Heterodimerization of Endolysin Isoforms During Bacterial Infection by Staphylococcal Phage φ2638A” (bioRxiv, 2024).

B1: central amidase domain of Ply2638A (Ami) (domain or fragment, UniProt Q4ZD58 180-359, looked up)
chain: LKHIYSNHIKGNKITAPKPSIQGVVIHNDYGSMTPSQYLPWLYARENNGTHVNGWASVYANRNEVLWYHPTDYVEWHCGNQWANANLIGFEVCESYPGRISDKLFLENEEATLKVAADVMKSYGLPVNRNTVRLHNEFFGTSCPHRSWDLHVGKGEPYTTTNINKMKDYFIKRIKHYYDG
notes: Endolysin Ply2638A of phage φ2638A, central N-acetylmuramoyl-L-alanine amidase domain, residues 180-359 (Leu180-Gly359); The limits are printed for the construct used in crystallisation trials; also called amidase domain alone; source: E. coli, purified (cation exchange chromatography, SEC)
Regarding B1, in experiment [1], the binding result was “binds”.

B2: Ply2638A short variant isoform (PlySV) (domain or fragment, UniProt Q4ZD58 180-486, looked up)
chain: LKHIYSNHIKGNKITAPKPSIQGVVIHNDYGSMTPSQYLPWLYARENNGTHVNGWASVYANRNEVLWYHPTDYVEWHCGNQWANANLIGFEVCESYPGRISDKLFLENEEATLKVAADVMKSYGLPVNRNTVRLHNEFFGTSCPHRSWDLHVGKGEPYTTTNINKMKDYFIKRIKHYYDGGKLEVSKAATIKQSDVKQEVKKQEAKQIVKATDWKQNKDGIWYKAEHASFTVTAPEGIITRYKGPWTGHPQAGVLQKGQTIKYDEVQKFDGHVWVSWETFEGETVYMPVRTWDAKTGKVGKLWGEIK
notes: expected mass 35.3 kDa; the C-terminal SH3b domain ends at residue 486; The first residue may be Met when translation starts at the TTG codon or in the recombinant construct (surmise); also called SV isoform; short variant (SV); source: E. coli, purified (cation exchange chromatography, SEC); also co-produced with the FL isoform from pET302_PlyWT (PlyWT), purified the same way
B2: the “stoichiometry N” value in experiment [2] came to 1 PlySV per PlyFL.
